Results reported in the supplement of paper PMC11246515.
± gives the standard deviation of the averaged measurements.

Assay: total protein half-life in vivo (active degradation + dilution); higher = more stable protein
[1] = E. coli NCM3722 delta-clpP delta-lon delta-hslV, growth: N-lim chemostat, doubling time 6 h
[2] = E. coli NCM3722 delta-clpP, growth: N-lim chemostat, doubling time 6 h
[3] = E. coli NCM3722 delta-hslV, growth: N-lim chemostat, doubling time 6 h
[4] = E. coli NCM3722 delta-lon, growth: N-lim chemostat, doubling time 6 h
[5] = wild type E. coli NCM3722, growth: C-lim chemostat, doubling time 3 h
[6] = wild type E. coli NCM3722, growth: C-lim chemostat, doubling time 6 h
[7] = wild type E. coli NCM3722, growth: C-lim chemostat, doubling time 12 h
[8] = wild type E. coli NCM3722, growth: N-lim chemostat, doubling time 6 h
[9] = wild type E. coli NCM3722, growth: N-lim chemostat, doubling time 12 h
[10] = wild type E. coli NCM3722, growth: P-lim chemostat, doubling time 6 h
[11] = wild type E. coli NCM3722, growth: P-lim chemostat, doubling time 12 h
[12] = E. coli NCM3722 delta-smpB, growth: N-lim chemostat, doubling time 6 h

| Sequence | total protein half-life in vivo [1] [h] | total protein half-life in vivo [2] [h] | total protein half-life in vivo [3] [h] | total protein half-life in vivo [4] [h] | total protein half-life in vivo [5] [h] | total protein half-life in vivo [6] [h] | total protein half-life in vivo [7] [h] | total protein half-life in vivo [8] [h] | total protein half-life in vivo [9] [h] | total protein half-life in vivo [10] [h] | total protein half-life in vivo [11] [h] | total protein half-life in vivo [12] [h] |
| --- | --- | --- | --- | --- | --- | --- | --- | --- | --- | --- | --- | --- |
| MKSEVLSVKEKIGYGMGDAASHIIFDNVMLYMMFFYTDIFGIPAGFVGTMFLVARALDAISDPCMGLLADRTRSRWGKFRPWVLFGALPFGIVCVLAYSTPDLSMNGKMIYAAITYTLLTLLYTVVNIPYCALGGVITNDPTQRISLQSWRFVLATAGGMLSTVLMMPLVNLIGGDNKPLGFQGGIAVLSVVAFMMLAFCFFTTKERVEAPPTTTSMREDLRDIWQNDQWRIVGLLTIFNILAVCVRGGAMMYYVTWILGTPEVFVAFLTTYCVGNLIGSALAKPLTDWKCKVTIFWWTNALLAVISLAMFFVPMQASITMFVFIFVIGVLHQLVTPIQWVMMSDTVDYGEWCNGKRLTGISFAGTLFVLKLGLAFGGALIGWMLAYGGYDAAEKAQNSATISIIIALFTIVPAICYLLSAIIAKRYYSLTTHNLKTVMEQLAQGKRRCQQQFTSQEVQN | 3.79 ± 0.88 | 2.71 ± 0.12 | 2.34 ± 0.037 | 2.68 | 2.83 ± 0.12 | 4.26 ± 0.11 | 8.19 ± 1.7 | 2.823 ± 0.011 | 4.72 | 5.34 ± 0.062 | 9.79 ± 1.1 |  |
| MPGKIAVEVAYALPEKQYLQRVTLQEGATVEEAIRASGLLELRTDIDLTKNKVGIYSRPAKLSDSVHDGDRVEIYRPLIADPKELRRQRAEKSANK | 5.54 ± 0.24 | 5.02 ± 0.35 | 3.33 | 4.06 | 2.87 | 5.02 ± 0.71 | 6.3 ± 3.5 | 3.34 ± 0.09 | 5.54 | 5.31 | 8.44 ± 1 | 2.89 ± 0.05 |
| MNVVILDTGCANLNSVKSAIARHGYEPKVSRDPDVVLLADKLFLPGVGTAQAAMDQVRERELFDLIKACTQPVLGICLGMQLLGRRSEESNGVDLLGIIDEDVPKMTDFGLPLPHMGWNRVYPQAGNRLFQGIEDGAYFYFVHSYAMPVNPWTIAQCNYGEPFTAAVQKDNFYGVQFHPERSGAAGAKLLKNFLEM | 5.66 ± 1.5 | 4.08 ± 0.64 | 4.08 ± 0.044 | 4.11 ± 0.85 | 3.16 ± 0.23 | 5.31 ± 0.46 | 10.5 ± 0.7 | 4.46 ± 0.29 | 7.8 ± 1.1 | 5.78 ± 0.17 | 11.3 ± 0.22 | 4.11 ± 0.27 |
| MDKIFVDEAVNELQTIQDMLRWSVSRFSAANIWYGHGTDNPWDEAVQLVLPSLYLPLDIPEDMRTARLTSSEKHRIVERVIRRVNERIPVAYLTNKAWFCGHEFYVDERVLVPRSPIGELINNKFAGLISKQPQHILDMCTGSGCIAIACAYAFPDAEVDAVDISPDALAVAEQNIEEHGLIHNVIPIRSDLFRDLPKVQYDLIVTNPPYVDAEDMSDLPNEYRHEPELGLASGTDGLKLTRRILGNAADYLADDGVLICEVGNSMVHLMEQYPDVPFTWLEFDNGGDGVFMLTKEQLIAAREHFAIYKD | 5.46 ± 2.1 | 3.84 ± 0.055 | 3.656 ± 0.0091 | 3.97 ± 0.38 | 2.81 ± 0.12 | 5.74 ± 0.41 | 10 ± 0.21 | 3.85 ± 0.054 | 6.16 ± 0.26 | 5.56 ± 0.2 | 11 ± 1.2 | 3.9 ± 0.11 |
| MTWFIDRRLNGKNKSMVNRQRFLRRYKAQIKQSISEAINKRSVTDVDSGESVSIPTEDISEPMFHQGRGGLRHRVHPGNDHFVQNDRIERPQGGGGGSGSGQGQASQDGEGQDEFVFQISKDEYLDLLFEDLALPNLKQNQQRQLTEYKTHRAGYTANGVPANISVVRSLQNSLARRTAMTAGKRRELHALEENLAIISNSEPAQLLEEERLRKEIAELRAKIERVPFIDTFDLRYKNYEKRPDPSSQAVMFCLMDVSGSMDQSTKDMAKRFYILLYLFLSRTYKNVEVVYIRHHTQAKEVDEHEFFYSQETGGTIVSSALKLMDEVVKERYNPAQWNIYAAQASDGDNWADDSPLCHEILAKKLLPVVRYYSYIEITRRAHQTLWREYEHLQSTFDNFAMQHIRDQDDIYPVFRELFHKQNATAKG | 2.93 ± 0.22 | 2.2 ± 0.052 | 1.52 ± 0.018 | 1.525 ± 0.004 | 1.37 ± 0.082 | 1.6 ± 0.063 | 1.95 ± 0.46 | 1.47 ± 0.039 | 1.64 ± 0.027 | 1.98 ± 0.3 | 3.11 ± 0.88 | 1.49 ± 0.047 |
| MSGSNTAISRRRLLQGAGAMWLLSVSQVSLAAVSQVVAVRVWPASSYTRVTVESNRQLKYKQFALSNPERVVVDIEDVNLNSVLKGMAAQIRADDPFIKSARVGQFDPQTVRMVFELKQNVKPQLFALAPVAGFKERLVMDLYPANAQDMQDPLLALLEDYNKGDLEKQVPPAQSGPQPGKAGRDRPIVIMLDPGHGGEDSGAVGKYKTREKDVVLQIARRLRSLIEKEGNMKVYMTRNEDIFIPLQVRVAKAQKQRADLFVSIHADAFTSRQPSGSSVFALSTKGATSTAAKYLAQTQNASDLIGGVSKSGDRYVDHTMFDMVQSLTIADSLKFGKAVLNKLGKINKLHKNQVEQAGFAVLKAPDIPSILVETAFISNVEEERKLKTATFQQEVAESILAGIKAYFADGATLARRG | 4.83 ± 0.39 | 5.68 ± 1.5 | 5.1 ± 0.2 | 5.12 ± 0.18 | 2.74 ± 0.23 | 4.852 ± 0.02 | 9.06 ± 0.98 | 5.19 ± 1.1 | 8.626 ± 0.061 | 5.29 ± 0.18 | 10.4 ± 0.28 | 4.18 ± 0.3 |
| MRYLNTKNIIAAGVLLSCMSSIAWGAIIPDRTRIIMNESDKGEALKLTNQSKNLPYLAQTWIEDTKGNKSRDFIVTVPPMVRLNPSEQIQIRMITQEKIAQLPKDRETLFYFNVREIPPKTDKKNVMQVTMQHALKLFWRPKAIELEDDGVMTYEKVEIIRRNDGSIRFNNKMPYHVTLGYIGTNGVTMLPQTQSLMVTPFSYANTQFKNVPSTFQVGYINDFGGLSFYEINCPVVNNICNISVANRDQ |  |  |  |  |  |  |  | 5.39 | 11.3 | 5.6 | 14.3 | 5.38 |
